Laboratory results: patent publication US20160153985A1

Experiments:
[1] = target: pure human iC3b (Complement Technology, A115) (human) (UniProt P01024); test: sandwich ELISA, capture A209 (Example 5), goat anti-C3-HRP; TABLE 6 well A7, blocker
[2] = target: pure human iC3b (Complement Technology, A115) (human) (UniProt P01024); test: sandwich ELISA, capture A209 (Example 5), goat anti-C3-HRP; TABLE 6 well G4, 10% vitreous
[3] = target: pure human iC3b (Complement Technology, A115) (human) (UniProt P01024); test: sandwich ELISA, capture A209 (Example 5), goat anti-C3-HRP; TABLE 6 well B7, blocker
[4] = target: pure human iC3b (Complement Technology, A115) (human) (UniProt P01024); test: sandwich ELISA, capture A209 (Example 5), goat anti-C3-HRP; TABLE 6 well C9, 30% vitreous
[5] = target: pure human iC3b (Complement Technology, A115) (human) (UniProt P01024); test: sandwich ELISA, capture A209 (Example 5), goat anti-C3-HRP; TABLE 6 well B9, blocker
[6] = target: pure human iC3b (Complement Technology, A115) (human) (UniProt P01024); test: sandwich ELISA, capture A209 (Example 5), goat anti-C3-HRP; TABLE 6 well D8, 30% vitreous
[7] = target: pure human iC3b (Complement Technology, A115) (human) (UniProt P01024); test: sandwich ELISA, capture A209 (Example 5), goat anti-C3-HRP; TABLE 6 well A4, blocker
[8] = target: pure human iC3b (Complement Technology, A115) (human) (UniProt P01024); test: sandwich ELISA, capture A209 (Example 5), goat anti-C3-HRP; TABLE 6 well E4, 20% vitreous
[9] = target: pure human iC3b (Complement Technology, A115) (human) (UniProt P01024); test: sandwich ELISA, capture A209 (Example 5), goat anti-C3-HRP; TABLE 7, iC3b in 20% vitreous
[10] = target: pure human iC3b (Complement Technology, A115) (human) (UniProt P01024); test: sandwich ELISA of Example 5, iC3b concentration labeled 0.0125 in 20% human vitreous, duplicate 2
[11] = target: pure human iC3b (Complement Technology, A115) (human) (UniProt P01024); test: sandwich ELISA, capture A209 (Example 5), goat anti-C3-HRP; TABLE 7, iC3b in 30% vitreous
[12] = target: pure human iC3b (Complement Technology, A115) (human) (UniProt P01024); test: sandwich ELISA, capture A209 (Example 5), goat anti-C3-HRP; TABLE 6 well B3, blocker
[13] = target: pure human iC3b (Complement Technology, A115) (human) (UniProt P01024); test: sandwich ELISA, capture A209 (Example 5), goat anti-C3-HRP; TABLE 6 well E8, 20% vitreous
[14] = target: pure human iC3b (Complement Technology, A115) (human) (UniProt P01024); test: sandwich ELISA, capture A209 (Example 5), goat anti-C3-HRP; TABLE 6 well H8, 10% vitreous
[15] = target: pure human iC3b (Complement Technology, A115) (human) (UniProt P01024); test: sandwich ELISA, capture A209 (Example 5), goat anti-C3-HRP; TABLE 7, iC3b in 10% vitreous
[16] = target: pure human iC3b (Complement Technology, A115) (human) (UniProt P01024); test: sandwich ELISA, capture A209 (Example 5), goat anti-C3-HRP; TABLE 6 well H3, 10% vitreous
[17] = target: pure human iC3b (Complement Technology, A115) (human) (UniProt P01024); test: sandwich ELISA, capture A209 (Example 5), goat anti-C3-HRP; TABLE 6 well F4, 20% vitreous
[18] = target: pure human iC3b (Complement Technology, A115) (human) (UniProt P01024); test: sandwich ELISA, capture A209 (Example 5), goat anti-C3-HRP; TABLE 6 well H6, 10% vitreous
[19] = target: pure human iC3b (Complement Technology, A115) (human) (UniProt P01024); test: sandwich ELISA, capture A209 (Example 5), goat anti-C3-HRP; TABLE 6 well F2, 20% vitreous
[20] = target: pure human iC3b (Complement Technology, A115) (human) (UniProt P01024); test: sandwich ELISA, capture A209 (Example 5), goat anti-C3-HRP; TABLE 6 well G8, 10% vitreous
[21] = target: pure human iC3b (Complement Technology, A115) (human) (UniProt P01024); test: sandwich ELISA, capture A209 (Example 5), goat anti-C3-HRP; TABLE 6 well G9, 10% vitreous
[22] = target: pure human iC3b (Complement Technology, A115) (human) (UniProt P01024); test: sandwich ELISA, capture A209 (Example 5), goat anti-C3-HRP; TABLE 6 well F7, 20% vitreous
[23] = target: pure human iC3b (Complement Technology, A115) (human) (UniProt P01024); test: sandwich ELISA, capture A209 (Example 5), goat anti-C3-HRP; TABLE 6 well F9, 20% vitreous

UniProt P01024, sequence (P01024 23-667 limits assumed, chain 1 of 3): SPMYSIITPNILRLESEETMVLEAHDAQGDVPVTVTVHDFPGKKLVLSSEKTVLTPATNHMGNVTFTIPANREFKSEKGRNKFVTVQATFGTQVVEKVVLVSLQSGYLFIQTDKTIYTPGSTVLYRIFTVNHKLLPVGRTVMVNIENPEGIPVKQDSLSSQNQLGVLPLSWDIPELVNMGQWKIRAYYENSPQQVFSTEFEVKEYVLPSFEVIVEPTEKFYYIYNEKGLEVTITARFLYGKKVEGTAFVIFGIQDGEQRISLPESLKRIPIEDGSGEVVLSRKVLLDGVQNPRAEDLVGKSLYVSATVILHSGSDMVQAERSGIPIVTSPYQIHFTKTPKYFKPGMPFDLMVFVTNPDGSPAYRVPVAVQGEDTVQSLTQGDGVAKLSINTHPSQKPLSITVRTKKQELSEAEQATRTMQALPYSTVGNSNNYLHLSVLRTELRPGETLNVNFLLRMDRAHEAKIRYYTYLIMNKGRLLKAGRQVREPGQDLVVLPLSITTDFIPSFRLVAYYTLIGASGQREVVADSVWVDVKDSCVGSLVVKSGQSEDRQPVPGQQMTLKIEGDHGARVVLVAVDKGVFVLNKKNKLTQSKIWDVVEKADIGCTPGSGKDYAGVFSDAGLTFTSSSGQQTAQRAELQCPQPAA
UniProt P01024, sequence (P01024 749-1303 limits assumed, chain 2 of 3): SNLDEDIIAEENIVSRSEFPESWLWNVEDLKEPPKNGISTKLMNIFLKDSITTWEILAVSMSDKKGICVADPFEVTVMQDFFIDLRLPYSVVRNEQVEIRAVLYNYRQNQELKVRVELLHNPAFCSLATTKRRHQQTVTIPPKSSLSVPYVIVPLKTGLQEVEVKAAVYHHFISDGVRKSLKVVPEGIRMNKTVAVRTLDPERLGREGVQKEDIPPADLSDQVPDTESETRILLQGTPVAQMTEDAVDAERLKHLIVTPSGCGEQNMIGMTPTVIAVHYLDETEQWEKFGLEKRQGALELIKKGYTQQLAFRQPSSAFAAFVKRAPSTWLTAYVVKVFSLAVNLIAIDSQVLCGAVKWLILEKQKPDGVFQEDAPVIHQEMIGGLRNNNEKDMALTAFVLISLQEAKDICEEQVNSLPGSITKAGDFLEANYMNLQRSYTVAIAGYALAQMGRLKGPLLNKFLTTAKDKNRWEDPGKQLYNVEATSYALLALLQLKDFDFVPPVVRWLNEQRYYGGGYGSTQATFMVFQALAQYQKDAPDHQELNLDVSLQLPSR
UniProt P01024, sequence (P01024 1321-1663 limits assumed, chain 3 of 3): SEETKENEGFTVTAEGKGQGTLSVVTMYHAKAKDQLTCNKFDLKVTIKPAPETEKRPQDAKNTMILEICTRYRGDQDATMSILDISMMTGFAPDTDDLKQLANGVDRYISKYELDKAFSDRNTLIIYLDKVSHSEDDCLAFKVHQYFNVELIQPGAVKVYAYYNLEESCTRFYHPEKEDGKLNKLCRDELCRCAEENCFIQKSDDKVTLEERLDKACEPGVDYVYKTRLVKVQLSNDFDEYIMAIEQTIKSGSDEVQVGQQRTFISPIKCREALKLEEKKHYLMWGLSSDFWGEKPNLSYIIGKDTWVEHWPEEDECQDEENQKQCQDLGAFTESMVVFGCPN

## mouse anti-iC3b antibody A209 (Quidel)
[1]
  raw A450 at iC3b 0.031 ug/ml: 0.053 OD
[2]
  raw A450 at iC3b 0.25 ug/ml: 0.28 OD
[3]
  raw A450 at iC3b 0.031 ug/ml: 0.048 OD
[4]
  raw A450 at iC3b 0.0078 ug/ml: 0.368 OD
[5]
  raw A450 at iC3b 0.0078 ug/ml: 0.032 OD
[6]
  raw A450 at iC3b 0.016 ug/ml: 0.355 OD
[7]
  raw A450 at iC3b 0.25 ug/ml: 0.169 OD
[8]
  raw A450 at iC3b 0.25 ug/ml: 0.411 OD
[9]
  A450 minus matrix average at iC3b 0.0078 ug/ml: -0.002 OD
  A450 minus matrix average at iC3b 0.016 ug/ml: 0 OD
  A450 minus matrix average at iC3b 0.031 ug/ml: 0.012 OD
  A450 minus matrix average at iC3b 0.063 ug/ml: 0.03 OD
  A450 minus matrix average at iC3b 0.25 ug/ml: 0.099 OD
  A450 minus matrix average at iC3b 0.5 ug/ml: 0.122 OD
  A450 minus matrix average at iC3b 1 ug/ml: 0.182 OD
[10]
  absorbance A450, raw: 0.384 A450
[11]
  A450 minus matrix average at iC3b 0.0078 ug/ml: 0.0042 OD
  A450 minus matrix average at iC3b 0.016 ug/ml: -0.02 OD
  A450 minus matrix average at iC3b 0.031 ug/ml: -0.005 OD
  A450 minus matrix average at iC3b 0.063 ug/ml: 0.008 OD
  A450 minus matrix average at iC3b 0.125 ug/ml: 0.027 OD
  A450 minus matrix average at iC3b 0.25 ug/ml: 0.051 OD
  A450 minus matrix average at iC3b 0.5 ug/ml: 0.045 OD
  A450 minus matrix average at iC3b 1 ug/ml: 0.087 OD
[12]
  raw A450 at iC3b 0.5 ug/ml: 0.265 OD
[13]
  raw A450 at iC3b 0.016 ug/ml: 0.321 OD
[14]
  raw A450 at iC3b 0.016 ug/ml: 0.237 OD
[15]
  A450 minus matrix average at iC3b 0.0078 ug/ml: -0.008 OD
  A450 minus matrix average at iC3b 0.016 ug/ml: 0.006 OD
  A450 minus matrix average at iC3b 0.031 ug/ml: 0.014 OD
  A450 minus matrix average at iC3b 0.063 ug/ml: 0.017 OD
  A450 minus matrix average at iC3b 0.125 ug/ml: 0.062 OD
  A450 minus matrix average at iC3b 0.25 ug/ml: 0.056 OD
  A450 minus matrix average at iC3b 0.5 ug/ml: 0.125 OD
  A450 minus matrix average at iC3b 1 ug/ml: 0.239 OD
[16]
  raw A450 at iC3b 0.5 ug/ml: 0.316 OD
[17]
  raw A450 at iC3b 0.25 ug/ml: 0.435 OD
[18]
  raw A450 at iC3b 0.063 ug/ml: 0.23 OD
[19]
  raw A450 at iC3b 1 ug/ml: 0.527 OD
[20]
  raw A450 at iC3b 0.016 ug/ml: 0.227 OD
[21]
  raw A450 at iC3b 0.0078 ug/ml: 0.229 OD
[22]
  raw A450 at iC3b 0.031 ug/ml: 0.333 OD
[23]
  raw A450 at iC3b 0.0078 ug/ml: 0.38 OD
